The target in the assay is CD3 on non-edited CD3+ T cells of a human donor (human) (UniProt P07766). Kind of assay: cell-based or functional assay.
Chain of CD3 on non-edited CD3+ T cells of a human donor (human) (P07766 23-207, chain 1 of 3): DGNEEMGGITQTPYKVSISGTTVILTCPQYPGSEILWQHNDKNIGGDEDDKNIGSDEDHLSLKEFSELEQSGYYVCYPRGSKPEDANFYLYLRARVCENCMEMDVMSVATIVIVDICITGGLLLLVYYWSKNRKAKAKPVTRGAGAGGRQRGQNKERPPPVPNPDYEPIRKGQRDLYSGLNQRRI
Chain of CD3 on non-edited CD3+ T cells of a human donor (human) (P09693 23-182, chain 2 of 3, further chain): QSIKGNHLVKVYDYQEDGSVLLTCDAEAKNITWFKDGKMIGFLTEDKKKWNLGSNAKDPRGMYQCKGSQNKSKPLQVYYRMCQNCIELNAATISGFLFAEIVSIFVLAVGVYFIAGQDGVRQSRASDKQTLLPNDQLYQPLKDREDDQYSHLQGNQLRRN
Chain of CD3 on non-edited CD3+ T cells of a human donor (human) (P04234 22-171, chain 3 of 3, further chain): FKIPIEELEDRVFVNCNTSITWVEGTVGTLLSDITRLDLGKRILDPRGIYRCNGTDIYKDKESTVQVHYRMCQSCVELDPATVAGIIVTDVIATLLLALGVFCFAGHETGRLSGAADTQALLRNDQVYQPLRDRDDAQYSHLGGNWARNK

As for “foralumab biosimilar (Creative Biolabs) (antibody)”, the percent killing in a complement-dependent cytotoxicity (CDC) assay on non-edited CD3+ T cells, 24 h, 30% human serum, antibody at 30-4000 ng/ml turned out to be 65%.
